Experimental data reported in PMC2635643, “Improving the Stability of Insulin in Solutions Containing Intestinal Proteases in Vitro” (International Journal of Molecular Sciences, 2008).

How the values were obtained:
[1] = tested on: trypsin; assay: Degradation of insulin induced by trypsin (remaining insulin by HPLC and PAGE); type: in vitro ADME
Experimental: (§1) HPLC was carried out according to Todo et al. with minor modifications. Analyses of remaining insulin were carried out by reserve phase HPLC with an isocratic system (Shimadzu Co., Kyoto) using the raw insulin bulk drug as the standard (28 IU/mg). The HPLC system was composed of a pump (LC-10ADvp), diode array detector (SPD-M10Avp), column oven (CTO-10ASvp), and LC workstation (CLASS-LC10). The mobile phase was a 72:28 mixture of 0.2 mol/L sodium sulphate buffer (pH 3.0) and acetonitrile at a flow rate of 1.0 mL/min. The column was a Shodex Asahipak ODP-50 6D (4.6mm × 150 mm, 5 um) (Showa Denko, Ltd., Tokyo) heated at room temperature. Ultraviolet absorption was measured at 214 nm.
(§2) PAGE was carried out according to Laemmli with minor modifications. The running gel, stacking gel and electrode buffer are without sodium dodecyl sulfate (SDS). The running gel and stacking gel contained 15% and 4.5% acrylamide, respectively. After electrophoresis, the gels were subjected to stain with Coomassie Brilliant R-250.
(§3) Insulin was dissolved in a few drops of 0.05 mol/L HCL, then 0.05 mol/L PBS (phosphate buffer, pH=7.0) was added. α-Chymotrypsin (5 mg/mL) and trypsin (12 mg/mL) solutions were prepared with Tris-HCL buffer (pH=8.0), respectively. Casein (5 g) was dissolved in 0.1 mol/L NaOH (10 mL), then was diluted to 100 mL with PBS (pH=7.0), The pH of final concentration was again measured and adjusted to pH 7.0. 5% Protamine solution was prepared with PBS (pH=7.0). Insulin solution and enzyme solutions were incubated at 37 °C for 15 min. Different treatments were administered. The final concentration of insulin in the solution was 0.5 mg/mL. The final mass ratios in the solution were as following, insulin:HP-β-CD = 1 :30; insulin:casein = 1:10; insulin:protamine = 1:10; insulin:casein or protamine:HP-β-CD = 1:10:30. Before the addition of a-chymotrypsin solution, insulin solution was vortexed at high speed for 5 s and a sample was withdrawn and added with ice-cold 0.5% TFA acid as the zero time sample. Samples were withdrawn for 15, 30, 45 and 60 min after the addition of the enzyme solution at 37 °C. The final enzyme concentrations of α-chymotrypsin and trypsin were 8 mg/L [29] and 600 mg/L [21], respectively. Then the samples were analyzed by PAGE and HPLC after adding 50 μl of ice-cold 0.5% TFA acid to terminate the reaction. Every experiment was carried out three times. The average and the standard deviation of the data were calculated.

[2] = tested on: α-chymotrypsin; assay: Degradation of insulin induced by α-chymotrypsin (remaining insulin by HPLC and PAGE); type: in vitro ADME
Experimental: as §1, §2, §3

[3] = UV absorption spectra of insulin in different solutions; type: physicochemical; conditions: Table 1, UV absorption at 275 nm; insulin 100 μg/mL, casein 200 μg/mL, HP-β-CD 1 mg/mL (Figure 6A)
Experimental: Absorption spectra were recorded on a Shimadzu UV-2450 spectrophotometer. The absorption spectra were carried out according to Kano et al..

Insulin
degradation of insulin by trypsin, treated with HP-β-CD ([1]; insulin 0.5 mg/mL, insulin:HP-β-CD = 1:30 (mass), trypsin 600 mg/L, PBS pH 7.0, 37 °C, 0-60 min, n=3, P>0.05 vs insulin alone): partly inhibited | degradation of insulin by trypsin in the presence of protamine ([1]; insulin 0.5 mg/mL, insulin:protamine = 1:10 (mass), trypsin 600 mg/L, PBS pH 7.0, 37 °C, 0-60 min, n=3, P<0.05 vs insulin alone): significantly decreased | insulin detected (remaining) against trypsin, co-incubated with HP-β-CD and protamine ([1]; insulin 0.5 mg/mL, insulin:protamine:HP-β-CD = 1:10:30 (mass), trypsin 600 mg/L, PBS pH 7.0, 37 °C, at 60 min, HPLC UV 214 nm, mean of n=3, P<0.01 vs insulin alone): about 70% | insulin remained against trypsin ([1]; insulin alone 0.5 mg/mL, trypsin 600 mg/L, PBS pH 7.0, 37 °C, after 60 min, 15 min pre-incubation, HPLC UV 214 nm, mean of n=3): about 15% | remaining insulin against trypsin in the solution containing casein and protamine ([1]; insulin with casein and protamine, trypsin, 37 °C, data not shown): almost equal to that in the solution containing protamine | insulin detected (remaining) against α-chymotrypsin, treated with HP-β-CD ([2]; insulin 0.5 mg/mL, insulin:HP-β-CD = 1:30 (mass), α-chymotrypsin 8 mg/L, PBS pH 7.0, 37 °C, sampling 0-60 min, HPLC UV 214 nm, mean of n=3, P>0.05 vs insulin alone): About 25% | insulin remained undegraded against α-chymotrypsin, treated with casein ([2]; insulin 0.5 mg/mL, insulin:casein = 1:10 (mass), α-chymotrypsin 8 mg/L, PBS pH 7.0, 37 °C, sampling 0-60 min, HPLC UV 214 nm, mean of n=3, P<0.01 vs insulin alone): about 45% | insulin remained undegraded against α-chymotrypsin, co-incubated with HP-β-CD and casein ([2]; insulin 0.5 mg/mL, insulin:casein:HP-β-CD = 1:10:30 (mass), α-chymotrypsin 8 mg/L, PBS pH 7.0, 37 °C, sampling 0-60 min, HPLC UV 214 nm, mean of n=3, P<0.001 vs insulin alone): About 80% | remaining insulin against α-chymotrypsin ([2]; insulin alone 0.5 mg/mL, α-chymotrypsin 8 mg/L, PBS pH 7.0, 37 °C, after 60 min, 15 min pre-incubation, HPLC UV 214 nm and PAGE, n=3): most of insulin was degraded | remained insulin against α-chymotrypsin in the solution containing casein and protamine ([2]; insulin with casein and protamine, α-chymotrypsin, 37 °C, data not shown): almost equal to that in the solution containing casein | ΔA275 [3]: 0.098

Casein
ΔA275 [3]: 0.219
